# Results from patent publication US20200407452A1 (published 2020).
# Legend:
# mouse MET ECD [1] = molecular target: T1, mouse MET ECD (mouse, UniProt P16056 25-931); assay: ELISA, MET ECD coated, mAb 0-40 nM, mouse IgG format
# T1 construct: range 1-931; recombinant; range as printed includes the signal peptide; also called mMET; mMET ECD
# human MET ECD [2] = molecular target: T2, human MET ECD (human, UniProt P08581 25-932); assay: as above
# T2 construct: range 1-932; recombinant; range as printed includes the signal peptide; also called hMET; hMET ECD
# [3] = molecular target: human MET ECD mutant E (mutations 2, 3, 4) (human) (UniProt P08581); assay: ELISA, WT or mutant hMET ECD coated
# [4] = molecular target: human MET ECD mutant H (mutations 2, 4) (human) (UniProt P08581); assay: ELISA, WT or mutant hMET ECD coated
# [5] = molecular target: human MET ECD mutant D (mutations 1, 2) (human) (UniProt P08581); assay: ELISA, WT or mutant hMET ECD coated
# [6] = molecular target: human MET ECD mutant A (mutations 1, 2, 3) (human) (UniProt P08581); assay: ELISA, WT or mutant hMET ECD coated
# [7] = molecular target: T3, native human MET on living cells (human, UniProt P08581 25-1390); assay: cell-based or functional assay
# [8] = molecular target: T4, native mouse MET on living cells (mouse, UniProt P16056 25-1379); assay: cell-based or functional assay
# [9] = molecular target: T3, native human MET on living cells; assay: cell-based or functional assay; remark: listed apart in the source
# [10] = molecular target: T4, native mouse MET on living cells; assay: cell-based or functional assay; remark: listed apart in the source
# human MET ECD [11] = molecular target: T2, human MET ECD; assay: ELISA, WT or mutant hMET ECD coated
# Method: Using human MET as a template, we mutagenized each of these residues in different permutations, generating a series of MET mutants that are fully human except for specific residues, which are llama. Next, we tested the affinity of selected SEMA-binding mAbs (71D6, 71C3, 71D4, 71A3, 71G2) and PSI-binding mAbs (76H10 and 71G3) for these MET mutants by ELISA. To this end, the various MET proteins were immobilized in solid phase (100 ng/well in a 96-well plate) and then exposed to increasing concentrations of antibodies (0-50 nM) solution. […] Wild-type human MET was used as positive control.
# TABLE 24 The epitopes of MET responsible for agonistic antibody binding represent residues conserved among H. sapiens, M. musculus, R. norvegicus, M. fascicularis but not among the same species and L. glama. The relevance of residues conserved among human, mouse, rat, cynomolgus monkey but not llama MET for binding to agonistic mAbs was tested by ELISA. Wild-type (WT) or mutant (MT) human MET ECD was immobilized in solid phase and exposed to increasing concentrations of mAbs in solution. […] All binding values were normalized to the WT protein and are expressed as % binding (EMAX) compared to WT MET.
# mouse MET ECD [12] = molecular target: T1, mouse MET ECD; assay: ELISA, MET ECD coated, mAb 0-20 nM
# Method: (§1) Production (by transient transfection of mammalian cells) and purification (by protein A affinity chromatography) of the resulting chimeric llama-human IgG1 molecules was outsourced to U-protein Express. Binding of chimeric mAbs to MET was determined by ELISA using hMET or mMET ECD in solid phase and increasing concentrations of antibodies (0-20 nM) in solution. […] Binding capacity (EMAX) varied from antibody to antibody, possibly due to partial epitope exposure in the immobilized antigen, but was similar in the human and mouse setting.
# human MET ECD [13] = molecular target: T2, human MET ECD; assay: ELISA, MET ECD coated, mAb 0-20 nM
# Method: as §1
# [14] = molecular target: T3, native human MET on living cells; assay: FACS, A549 cells
# [15] = molecular target: T4, native mouse MET on living cells; assay: FACS, MLP29 cells
# [16] = molecular target: T3, native human MET on living cells; assay: cell-based or functional assay; remark: listed apart in the source
# [17] = molecular target: T4, native mouse MET on living cells; assay: cell-based or functional assay; remark: listed apart in the source
# [18] = molecular target: human MET ECD mutant J (mutations 6, 7) (human) (UniProt P08581); assay: ELISA, WT or mutant hMET ECD coated
# [19] = molecular target: human MET ECD mutant I (mutations 6, 7, 8) (human) (UniProt P08581); assay: ELISA, WT or mutant hMET ECD coated
# human MET ECD [20] = molecular target: T2, human MET ECD; assay: ELISA, hMET ECD coated
# mouse MET ECD [21] = molecular target: T1, mouse MET ECD; assay: ELISA, mMET ECD coated
Molecule,% binding (EMAX) vs WT MET ECD [3] [%],% binding (EMAX) vs WT MET ECD [4] [%],% binding (EMAX) vs WT MET ECD [5] [%],% binding (EMAX) vs WT MET ECD [6] [%],"phospho-MET ELISA EMAX, A549 cells [7] [% HGF activity]","phospho-MET ELISA EMAX, MLP29 cells [8] [% HGF activity]","protection from staurosporine-induced apoptosis EC50, MCF10A cells [9] [nM]","protection from staurosporine-induced apoptosis EMAX, MCF10A cells [9] [%]","protection from staurosporine-induced apoptosis EC50, MLP29 cells [10] [nM]","protection from staurosporine-induced apoptosis EMAX, MLP29 cells [10] [%]",% binding (EMAX) vs WT MET ECD (human MET ECD [11]) [%],EMAX (mouse MET ECD [12]) [OD450 AU],EMAX (human MET ECD [13]) [OD450 AU],EMAX [14] [% CTR],EMAX [15] [% CTR],"A549 MET act. (EMAX, % HGF) [16] [% HGF]",LOC br. m. (branch n.) [16] [branches per spheroid],"MLP29 MET act. (EMAX, % HGF) [17] [% HGF]",MLP29 br. m. (branch n.) [17] [branches per spheroid],also measured
5D5 mouse anti-human MET antibody,–,–,–,–,–,–,–,–,–,–,–,–,–,–,–,–,–,–,–,EC50 (mouse MET ECD [1]): > 40 nM; EC50 (human MET ECD [2]): 0.197 nM; EMAX (human MET ECD [2]): 3.16 OD450
"71A3 chimeric llama-human IgG1 mAb (antibody, V domains shown, human IgG1 CH1-CH2-CH3 and human CL lambda) VH: EVQLVESGGGLVQPGGSLRLSCAASGFSFKDYDITWVRQAPGKGLEWVSTITSRSGSTSYVDSVKGRFTISGDNAKNTLYLQMNSLKPEDTAVYYCAKVYATTWDVGPLGYGMDYWGKGTLVTVSS VL: SYELTQPSALSVTLGQTAKITCQGGSLGSSYAHWYQQKPGQAPVLVIYDDDSRPSGIPERFSGSSSGGTATLTISGAQAEDEGDYYCQSADSSGNAAVFGGGTHLTVL",65.4,76.7,128,117,86.6,96,< 0.5,71.7,< 0.5,70.5,100,2.73,2.4,–,–,–,–,–,–,–
"71G2 chimeric llama-human IgG1 mAb (antibody, V domains shown, human IgG1 CH1-CH2-CH3 and human CL lambda; also called 71G2 Human IgG1/lambda) VH: EVQLQESGGGLVQPGGSLRLSCAASGFTFSIYDMSWVRQAPGKGLEWVSTINSDGSSTSYVDSVKGRFTISRDNAKNTLYLQMNSLKPEDTAVYYCAKVYGSTWDVGPMGYGMDYWGKGTLVTVSS VL: SSALTQPSALSVSLGQTARITCQGGSLGSSYAHWYQQKPGQAPVLVIYGDDSRPSGIPERFSGSSSGGTATLTISGAQAEDEDDYYCQSTDSSGNTVFGGGTRLTVL",41.4,40.2,114,92.1,101,110,1.06,64.8,1.99,58.3,100,3.17,3.09,137,131,106,31.7,110,45,–
"76H10 chimeric llama-human IgG1 mAb (antibody, V domains shown, human IgG1 CH1-CH2-CH3 and human CL lambda) VH: QLQLVESGGGLVQPGGSLRVSCTASGFTFNTYYMTWVRQAPGKGLEWVSDINSGGGTYYADSVKGRFTISRDNAKNTLYLQMNSLKPEDTALYYCVRVRIWPVGYDYWGQGTQVTVSS VL: QAVVTQEPSLSVSPGGTVTLTCGLSSGSVTTSNYPGWFQQTPGQAPRTLIYNTNNRHSGVPSRFSGSISGNKAALTITGAQPEDEADYYCSLYTGSYTTVFGGGTHLTVL",–,–,–,–,61.2,64.1,> 32,22.8,> 32,27.2,–,2.66,2.67,–,–,–,–,–,–,% binding (EMAX) vs WT MET ECD [18]: 89%; % binding (EMAX) vs WT MET ECD [19]: 100%
"71G3 chimeric llama-human IgG1 mAb (antibody, V domains shown, human IgG1 CH1-CH2-CH3 and human CL lambda; also called 71G3 Human IgG1/lambda) VH: QVQLVESGGGLVQPGGSLRVSCAASGFTFSTYYMSWVRQAPGKGLEWVSDIRTDGGTYYADSVKGRFTMSRDNAKNTLYLQMNSLKPEDTALYYCARTRIFPSGYDYWGQGTQVTVSS VL: QAVVTQEPSLSVSPGGTVTLTCGLSSGSVTTSNYPGWFQQTPGQAPRTLIYNTNSRHSGVPSRFSGSISGNKAALTIMGAQPEDEADYYCSLYPGSTTVFGGGTHLTVL",–,–,–,–,95.7,97.8,5.04,65.2,4.85,62.3,–,2.98,2.83,110,112,94.3,22.3,96.8,29.3,% binding (EMAX) vs WT MET ECD [18]: 91.2%; % binding (EMAX) vs WT MET ECD [19]: 100%
"71D6 chimeric llama-human IgG1 mAb (antibody, V domains shown, human IgG1 CH1-CH2-CH3 and human CL lambda; also called 71D6 Human IgG1/lambda) VH: ELQLVESGGGLVQPGGSLRLSCAASGFTFSSYGMSWVRQAPGKGLEWVSAINSYGGSTSYADSVKGRFTISRDNAKNTLYLQMNSLKPEDTAVYYCAKEVRADLSRYNDYESYDYWGQGTQVTVSS VL: QPVLNQPSALSVTLGQTAKITCQGGSLGARYAHWYQQKPGQAPVLVIYDDDSRPSGIPERFSGSSSGGTATLTISGAQAEDEGDYYCQSADSSGSVFGGGTHLTVL",43.6,38.6,128,103,102,115,1.48,66.8,0.95,68.3,100,2.01,2.08,115,120,104,32.7,110,41.3,EC50 (human MET ECD [20]): 0.032 nM; EC50 (mouse MET ECD [21]): 0.036 nM
"71D6 llama-mouse chimeric mAb (mouse IgG1/lambda) (antibody, V domains shown, also called 71D6 Mouse IgG1/lambda) VH: ELQLVESGGGLVQPGGSLRLSCAASGFTFSSYGMSWVRQAPGKGLEWVSAINSYGGSTSYADSVKGRFTISRDNAKNTLYLQMNSLKPEDTAVYYCAKEVRADLSRYNDYESYDYWGQGTQVTVSS VL: QPVLNQPSALSVTLGQTAKITCQGGSLGARYAHWYQQKPGQAPVLVIYDDDSRPSGIPERFSGSSSGGTATLTISGAQAEDEGDYYCQSADSSGSVFGGGTHLTVLG",–,–,–,–,–,–,–,–,–,–,–,–,–,–,–,–,30.4,–,39.5,EC50 (mouse MET ECD [21]): 0.036 nM
